Publication PMC4757822, “Structural and biochemical characterization of an RNA/DNA binding motif in the N-terminal domain of RecQ4 helicases”

What was measured:
[1] = test system: xUpZnK (upstream Sld2-like region + Zn knuckle) (Xenopus laevis); assay: EMSA; conditions: 20 mM Tris-HCl pH 7.5, 2 mM MgCl2, 50 mM NaCl, 5% glycerol, 1 mM DTT, 5 mM ZnCl2, 0.1 mg/ml BSA, 10 nM probe, 30 min room temperature; 6% native gel in TBE at …
[2] = molecular target: T1, hUpZnK (upstream Sld2-like region + Zn knuckle) (human) (UniProt O94761); assay: EMSA; conditions: 20 mM Tris-HCl pH 7.5, 2 mM MgCl2, 50 mM NaCl, 5% glycerol, 1 mM DTT, 5 mM ZnCl2, 0.1 mg/ml BSA, 10 nM probe, 30 min room temperature; 6% native gel in TBE at …
T1 sequence: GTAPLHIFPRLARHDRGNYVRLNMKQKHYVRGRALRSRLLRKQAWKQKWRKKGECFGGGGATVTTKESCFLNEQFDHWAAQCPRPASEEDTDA

hZnK (RecQ4 Zn knuckle) [3] = molecular target: T2, hZnK (RecQ4 Zn knuckle) (human, UniProt O94761 394-427); assay: EMSA; conditions: 20 mM Tris-HCl pH 7.5, 2 mM MgCl2, 50 mM NaCl, 5% glycerol, 1 mM DTT, 5 mM ZnCl2, 0.1 mg/ml BSA, 10 nM probe, 30 min room temperature; 6% native gel in TBE at …
T2 chain: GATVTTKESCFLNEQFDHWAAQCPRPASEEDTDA

[4] = molecular target: T3, hUpZnK (upstream Sld2-like region + Zn knuckle) (human, UniProt O94761 335-427); assay: EMSA; 5 mM ZnCl2, 2 mM Mg2+; 20 mM Tris-HCl pH 7.5, 2 mM MgCl2, 50 mM NaCl, 5% glycerol, 1 mM DTT, 5 mM ZnCl2, 0.1 mg/ml BSA, 10 nM probe, 30 min room temperature; 6% native gel in TBE at 4 C; conditions: protein: recombinant, tags: N-terminal 6His-GST (not cleaved), label: 5'-32P on one strand, fork
T3 sequence: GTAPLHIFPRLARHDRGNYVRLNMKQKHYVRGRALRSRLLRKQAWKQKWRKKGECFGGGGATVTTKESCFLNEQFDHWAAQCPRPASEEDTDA

hZnK (RecQ4 Zn knuckle) [5] = molecular target: T2, hZnK (RecQ4 Zn knuckle); assay: as above; conditions: protein: recombinant, tags: N-terminal 6His-GST (not cleaved), label: 5'-32P on one strand, fork
[6] = molecular target: T3, hUpZnK (upstream Sld2-like region + Zn …); assay: EMSA; 20 mM Tris-HCl pH 7.5, 2 mM MgCl2, 50 mM NaCl, 5% glycerol, 1 mM DTT, 5 mM ZnCl2, 0.1 mg/ml BSA, 10 nM probe, 30 min room temperature; 6% native gel in TBE at 4 C; conditions: protein: recombinant; tags: N-terminal 6His-GST (not cleaved); label: 5'-32P on one strand; blunt
hZnK (RecQ4 Zn knuckle) [7] = molecular target: T2, hZnK (RecQ4 Zn knuckle); assay: as above; conditions: protein: recombinant; tags: N-terminal 6His-GST (not cleaved); label: 5'-32P on one strand; blunt
[8] = 22 bp plus 15 nt unpaired U arms (3' arm of A3, 5' arm of A4)
[9] = 22 bp plus 15 nt unpaired T arms (3' arm of A1, 5' arm of A2)

GUAGUGCAUGUACACCACACUCUUUUUUUUUUUUUUU / UUUUUUUUUUUUUUUGAGUGUGGUGUACAUGCACUAC [forkRNA (A3+A4)]
Kd [1]: 5.4 nM

GTAGTGCATGTACACCACACTCTTTTTTTTTTTTTTT / TTTTTTTTTTTTTTTGAGTGTGGTGTACATGCACTAC [forkDNA (A1+A2)]
Kd [1]: 14 nM

ssDNA
Kd [2]: 185 nM | Kd [1]: 25 nM | Kd (hZnK (RecQ4 Zn knuckle) [3]): 500 nM

ssRNA
Kd [2]: 11 nM | Kd [1]: 7.3 nM | Kd (hZnK (RecQ4 Zn knuckle) [3]): 220 nM

B1: forkRNA (A3+A4) (dsRNA)
RNA 1: GUAGUGCAUGUACACCACACUCUUUUUUUUUUUUUUU
RNA 2: UUUUUUUUUUUUUUUGAGUGUGGUGUACAUGCACUAC
Kd [4, 8]: 13 ± 1.1 nM | Kd (hZnK (RecQ4 Zn knuckle) [5]; [8]): ~130 nM

B2: forkDNA (A1+A2) (dsDNA)
DNA 1: GTAGTGCATGTACACCACACTCTTTTTTTTTTTTTTT
DNA 2: TTTTTTTTTTTTTTTGAGTGTGGTGTACATGCACTAC
Kd [4, 9]: 42 ± 2.8 nM | Kd (hZnK (RecQ4 Zn knuckle) [5]; [9]): ~270 nM

B3: 22 bp dsDNA (annealed region of fork) (dsDNA)
DNA 1: GTAGTGCATGTACACCACACTC
DNA 2: GAGTGTGGTGTACATGCACTAC
binding result [6]: no binding | binding result (hZnK (RecQ4 Zn knuckle) [7]): no binding
